B1: aptamer B03 (biotinylated, SPR) (structured_RNA)
RNA: GGUUACCAGCCUUCACUGCGCCCAGUCACUGCACGAAUCAGUGAUGGCCGCACCACGGUCGGUCACAC
modifications: 2'-fluoro pyrimidines? (not stated for B03)
B2: aptamer H02-2'F (XNA)
RNA: GGUUACCAGCCUUCACUGCGGACGGACAGAGAGUGCAACCUGCCGUGCCGCACCACGGUCGGUCACAC
modifications: 2'-fluoro pyrimidines

How the values were obtained:
Test in all cases: SPR
[1] = target: T1, integrin α5β1 (soluble, SPR) (Homo sapiens, UniProt P08648;P05556 42-995;21-728)
[2] = target: integrin αvβ3 (Homo sapiens, UniProt P06756;P05106 31-992;27-718)
Sequence of integrin αvβ3 (P06756 31-992, chain 1 of 2): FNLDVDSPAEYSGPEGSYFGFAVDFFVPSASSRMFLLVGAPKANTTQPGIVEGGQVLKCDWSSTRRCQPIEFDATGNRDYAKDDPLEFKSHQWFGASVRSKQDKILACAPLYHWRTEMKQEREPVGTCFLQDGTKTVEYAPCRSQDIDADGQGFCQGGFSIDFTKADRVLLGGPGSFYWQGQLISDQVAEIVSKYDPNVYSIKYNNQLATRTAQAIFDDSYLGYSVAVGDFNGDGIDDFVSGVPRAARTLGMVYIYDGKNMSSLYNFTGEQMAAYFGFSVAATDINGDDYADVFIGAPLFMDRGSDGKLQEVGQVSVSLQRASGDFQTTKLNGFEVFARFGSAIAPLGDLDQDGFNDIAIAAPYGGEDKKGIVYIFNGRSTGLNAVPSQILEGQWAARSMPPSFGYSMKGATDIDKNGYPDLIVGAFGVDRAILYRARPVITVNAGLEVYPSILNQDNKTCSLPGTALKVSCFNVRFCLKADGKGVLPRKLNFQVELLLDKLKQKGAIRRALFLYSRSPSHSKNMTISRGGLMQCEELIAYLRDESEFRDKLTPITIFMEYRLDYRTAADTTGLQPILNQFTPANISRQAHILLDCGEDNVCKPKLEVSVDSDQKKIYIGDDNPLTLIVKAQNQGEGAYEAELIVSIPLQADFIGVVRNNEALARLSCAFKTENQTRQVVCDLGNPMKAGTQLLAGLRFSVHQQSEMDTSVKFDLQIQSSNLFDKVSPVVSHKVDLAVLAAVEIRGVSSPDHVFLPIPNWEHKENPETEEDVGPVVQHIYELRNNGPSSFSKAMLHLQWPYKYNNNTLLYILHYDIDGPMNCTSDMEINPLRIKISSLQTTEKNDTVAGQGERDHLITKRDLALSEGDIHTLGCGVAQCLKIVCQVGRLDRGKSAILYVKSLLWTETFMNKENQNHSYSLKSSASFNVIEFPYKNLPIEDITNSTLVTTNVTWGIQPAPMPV
Sequence of integrin αvβ3 (P05106 27-718, chain 2 of 2): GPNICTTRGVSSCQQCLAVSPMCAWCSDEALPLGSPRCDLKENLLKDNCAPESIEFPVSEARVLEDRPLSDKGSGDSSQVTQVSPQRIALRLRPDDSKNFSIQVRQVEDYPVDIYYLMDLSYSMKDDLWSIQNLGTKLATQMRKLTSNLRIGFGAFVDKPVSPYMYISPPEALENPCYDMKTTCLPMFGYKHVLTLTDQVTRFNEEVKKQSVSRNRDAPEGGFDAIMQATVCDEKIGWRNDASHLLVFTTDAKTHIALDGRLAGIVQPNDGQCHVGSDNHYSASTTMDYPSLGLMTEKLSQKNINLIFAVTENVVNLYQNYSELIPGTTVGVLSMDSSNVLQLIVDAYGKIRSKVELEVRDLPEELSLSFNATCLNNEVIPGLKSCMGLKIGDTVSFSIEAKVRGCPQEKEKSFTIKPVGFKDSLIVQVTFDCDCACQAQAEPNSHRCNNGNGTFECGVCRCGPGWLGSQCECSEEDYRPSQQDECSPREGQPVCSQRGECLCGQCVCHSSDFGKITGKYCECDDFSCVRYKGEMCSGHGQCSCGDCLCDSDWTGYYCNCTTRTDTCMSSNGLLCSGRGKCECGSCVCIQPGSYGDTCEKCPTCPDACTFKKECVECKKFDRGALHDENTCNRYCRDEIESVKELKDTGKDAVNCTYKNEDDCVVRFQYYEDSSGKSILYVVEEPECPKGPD

[3] = target: T1, integrin α5β1 (soluble, SPR); remark: listed apart in the source

T1 sequence (P08648 42-995, chain 1 of 2): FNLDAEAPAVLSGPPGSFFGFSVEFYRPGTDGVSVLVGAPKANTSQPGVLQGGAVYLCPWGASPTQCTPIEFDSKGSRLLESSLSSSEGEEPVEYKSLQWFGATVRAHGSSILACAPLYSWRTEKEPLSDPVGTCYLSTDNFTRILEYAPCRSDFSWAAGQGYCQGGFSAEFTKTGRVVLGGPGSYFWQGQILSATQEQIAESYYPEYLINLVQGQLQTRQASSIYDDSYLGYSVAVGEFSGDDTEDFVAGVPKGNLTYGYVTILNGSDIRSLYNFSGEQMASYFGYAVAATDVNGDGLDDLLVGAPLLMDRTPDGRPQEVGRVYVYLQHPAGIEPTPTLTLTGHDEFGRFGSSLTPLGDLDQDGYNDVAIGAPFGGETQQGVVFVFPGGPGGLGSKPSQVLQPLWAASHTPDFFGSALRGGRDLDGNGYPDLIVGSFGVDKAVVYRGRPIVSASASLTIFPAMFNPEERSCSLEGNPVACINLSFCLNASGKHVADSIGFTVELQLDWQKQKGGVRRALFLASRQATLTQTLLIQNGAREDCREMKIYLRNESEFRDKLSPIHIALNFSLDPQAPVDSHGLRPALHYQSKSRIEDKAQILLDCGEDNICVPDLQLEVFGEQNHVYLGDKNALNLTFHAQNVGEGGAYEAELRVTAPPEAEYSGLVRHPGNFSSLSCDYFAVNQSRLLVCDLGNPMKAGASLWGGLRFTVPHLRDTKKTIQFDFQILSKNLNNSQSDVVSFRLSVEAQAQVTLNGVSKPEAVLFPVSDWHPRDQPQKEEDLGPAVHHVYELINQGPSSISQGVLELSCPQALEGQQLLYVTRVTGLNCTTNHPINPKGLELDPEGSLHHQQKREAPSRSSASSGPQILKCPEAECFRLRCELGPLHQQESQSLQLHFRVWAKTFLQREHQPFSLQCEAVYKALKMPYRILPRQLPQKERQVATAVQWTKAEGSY
T1 sequence (P05556 21-728, chain 2 of 2): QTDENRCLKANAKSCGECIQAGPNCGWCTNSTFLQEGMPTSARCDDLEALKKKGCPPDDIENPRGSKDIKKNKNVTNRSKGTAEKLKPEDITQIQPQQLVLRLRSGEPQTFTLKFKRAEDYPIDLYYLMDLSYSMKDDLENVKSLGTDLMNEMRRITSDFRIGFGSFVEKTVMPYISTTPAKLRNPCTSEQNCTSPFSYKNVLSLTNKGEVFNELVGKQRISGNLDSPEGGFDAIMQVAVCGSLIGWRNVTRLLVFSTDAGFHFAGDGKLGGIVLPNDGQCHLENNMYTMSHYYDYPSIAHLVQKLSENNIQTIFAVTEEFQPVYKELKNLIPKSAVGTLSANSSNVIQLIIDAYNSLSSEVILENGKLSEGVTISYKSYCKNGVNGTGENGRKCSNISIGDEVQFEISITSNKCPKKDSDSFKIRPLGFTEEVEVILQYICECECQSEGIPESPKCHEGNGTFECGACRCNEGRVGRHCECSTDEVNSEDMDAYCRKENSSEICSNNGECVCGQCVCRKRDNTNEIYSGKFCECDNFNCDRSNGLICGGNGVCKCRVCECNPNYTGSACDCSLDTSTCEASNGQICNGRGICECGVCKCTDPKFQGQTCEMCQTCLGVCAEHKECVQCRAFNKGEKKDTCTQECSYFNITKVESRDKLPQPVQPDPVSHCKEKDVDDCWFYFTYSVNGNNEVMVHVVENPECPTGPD

| Binder | binding result [1] | binding result [2] | Kd [3] [nM] |
| --- | --- | --- | --- |
| B1 | no binding | – | – |
| B2 | – | no binding | 72 ± 11 |
